# From patent US20110177071A1 (PERSEID THERAPEUTICS, published 2011)
# Where a chain is given by its changes, count along the chain named.
# T1: full-length human CD86 on HEK293 cells (human, UniProt P42081 24-329)
# T1 sequence: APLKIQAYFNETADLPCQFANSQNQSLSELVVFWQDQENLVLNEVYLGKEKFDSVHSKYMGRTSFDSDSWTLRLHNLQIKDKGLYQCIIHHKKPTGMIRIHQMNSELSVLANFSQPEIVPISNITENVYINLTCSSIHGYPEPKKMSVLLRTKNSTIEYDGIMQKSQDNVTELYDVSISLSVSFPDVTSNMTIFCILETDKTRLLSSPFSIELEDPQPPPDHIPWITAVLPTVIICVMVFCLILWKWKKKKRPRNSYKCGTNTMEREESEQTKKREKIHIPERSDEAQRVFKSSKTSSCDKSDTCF
# T2: human CD86-murine Ig fusion protein (human)
# T2 construct: Bought (Ancell #509-820); also called hCD86-mIg
# T2 chain: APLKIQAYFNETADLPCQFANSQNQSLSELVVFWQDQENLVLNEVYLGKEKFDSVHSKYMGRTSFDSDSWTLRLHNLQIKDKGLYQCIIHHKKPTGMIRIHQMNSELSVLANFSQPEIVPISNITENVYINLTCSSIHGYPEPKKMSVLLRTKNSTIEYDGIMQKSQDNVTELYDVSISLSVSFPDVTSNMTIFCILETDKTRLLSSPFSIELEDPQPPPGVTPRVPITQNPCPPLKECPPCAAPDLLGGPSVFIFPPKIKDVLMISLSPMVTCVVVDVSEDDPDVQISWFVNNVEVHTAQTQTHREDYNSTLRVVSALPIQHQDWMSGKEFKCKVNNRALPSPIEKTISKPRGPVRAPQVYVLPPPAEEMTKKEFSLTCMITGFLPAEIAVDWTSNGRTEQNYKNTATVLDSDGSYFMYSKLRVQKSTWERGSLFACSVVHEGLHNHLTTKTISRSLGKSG
# T3: human CD80-murine Ig fusion protein (human)
# T3 construct: Bought (Ancell #510-820); also called hCD80-mIg; human CD80-murine IgG
# T3 chain: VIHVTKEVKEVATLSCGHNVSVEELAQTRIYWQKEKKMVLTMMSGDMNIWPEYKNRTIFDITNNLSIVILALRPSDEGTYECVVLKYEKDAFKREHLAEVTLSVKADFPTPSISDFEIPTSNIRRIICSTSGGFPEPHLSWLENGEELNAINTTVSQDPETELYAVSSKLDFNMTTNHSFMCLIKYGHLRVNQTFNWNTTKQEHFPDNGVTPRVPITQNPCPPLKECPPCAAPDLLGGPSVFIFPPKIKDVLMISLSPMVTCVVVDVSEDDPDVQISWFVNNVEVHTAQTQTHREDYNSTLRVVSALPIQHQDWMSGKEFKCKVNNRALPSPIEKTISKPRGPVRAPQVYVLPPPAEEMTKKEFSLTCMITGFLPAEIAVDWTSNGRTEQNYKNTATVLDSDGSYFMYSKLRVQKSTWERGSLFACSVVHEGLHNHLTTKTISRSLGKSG
# B1: D2-IgG2 (Fc fusion)
# chain: MHVAQPAVVLASSRGIASFVCEYESPHKANEIRVTVLRQANSQVTEVCAMTYMKGDELTFLDDPFCTGTFSGNQVNLTIQGLRAADTGLYICKVELMYPPPYYLGMGNGTQIYVIDPEPCPDSDERKCCVECPPCPAPPVAGPSVFLFPPKPKDTLMISRTPEVTCVVVDVSHEDPEVQFNWYVDGVEVHNAKTKPREEQFNSTFRVVSVLTVVHQDWLNGKEYKCKVSNKGLPAPIEKTISKTKGQPREPQVYTLPPSREEMTKNQVSLTCLVKGFYPSDIAVEWESNGQPENNYKTTPPMLDSDGSFFLYSKLTVDKSRWQQGNVFSCSVMHEALHNHYTQKSLSLSPG
# B2: D3-6-IgG2 (Fc fusion)
# chain: B1 chain with H27G, N41G, K54M, F65S, M106F
# notes: also called D3-06-IgG2
# B3: D3-2-IgG2 (Fc fusion)
# chain: B1 chain with H27G, N30T, N41G, F65S, M106F
# notes: also called D3-02-IgG2; D3-02
# B4: D3-3-IgG2 (Fc fusion)
# chain: B1 chain with H27G, I32V, N41G, F65S, M106F
# notes: also called D3-03-IgG2
# B5: D3-15-IgG2 (Fc fusion)
# chain: B1 chain with H27G, N41D, F65S, A85M, M106F
# B6: D3-23-IgG2 (Fc fusion)
# chain: B1 chain with H27G, N41D, D56N, F65S, M106F
# B7: D20-IgG2 (Fc fusion)
# chain: B1 chain with N30T, N41D, K54M, G55E, F65I, A85M, M106I
# B8: D3-26-IgG2 (Fc fusion)
# chain: B1 chain with E24A, H27G, N41D, D56N, F65S, A85M, M106I
# B9: D31-IgG2 (Fc fusion)
# chain: MHVAQPAVVLASSRGIASFVCEYEAPHNADEIRVTVLRQAGSQVTEVCAMTYMVEDELTFLDKSICTGTFSGNQVNLTIQGLRAMDTGLYICKVELMYPPPYYLGIGNGTQIYVIDPEPCPDSDERKCCVECPPCPAPPVAGPSVFLFPPKPKDTLMISRTPEVTCVVVDVSHEDPEVQFNWYVDGVEVHNAKTKPREEQFNSTFRVVSVLTVVHQDWLNGKEYKCKVSNKGLPAPIEKTISKTKGQPREPQVYTLPPSREEMTKNQVSLTCLVKGFYPSDIAVEWESNGQPENNYKTTPPMLDSDGSFFLYSKLTVDKSRWQQGNVFSCSVMHEALHNHYTQKSLSLSPG
# B10: D28-IgG2 (Fc fusion)
# chain: B1 chain with S25A, I32V, N41G, K54M, G55E, F65S, M106L
# B11: D3-28-IgG2 (Fc fusion)
# chain: B1 chain with H27G, N41D, D56N, F65I, A85M, M106I
# B12: D24-IgG2 (Fc fusion)
# chain: B1 chain with H27G, Q39K, N41G, G55E, F65S, M106L
# B13: D3-24-IgG2 (Fc fusion)
# chain: B1 chain with H27G, N41G, D56N, F65S, A85M, M106F
# B14: D4-IgG2 (Fc fusion)
# chain: B1 chain with E24S, H27G, N30D, N41S, K54E, F65T, A85V, M106F
# notes: also called clone D4
# B15: D3-74-IgG2 (Fc fusion)
# chain: B1 chain with E24A, H27G, N41D, D56N, F65I, A85M, L104E, M106I
# B16: D3-33-IgG2 (Fc fusion)
# chain: B1 chain with H27G, Q39K, N41D, G55E, F65S, M106I
# B17: D3-25-IgG2 (Fc fusion)
# chain: B1 chain with H27G, N41G, D56N, F65S, M106I
# B18: D23-IgG2 (Fc fusion)
# chain: B9 chain with E24S, D30A, Q39K, V54K, K63D, S64P, I65S, M85A, I106L
# B19: D3-66-IgG2 (Fc fusion)
# chain: B1 chain with E24A, H27G, I32V, N41D, F65I, A85M, L104E, M106I
# B20: D6-IgG2 (Fc fusion)
# chain: B1 chain with E24A, H27G, N30T, N41D, K54M, F65I, A85M, M106I
# B21: D5-IgG2 (Fc fusion)
# chain: B1 chain with E24A, H27G, N30T, I32V, N41D, M50A, K54M, F65I, A85M, M106I
# B22: D21-IgG2 (Fc fusion)
# chain: B9 chain with E24S, Q39K, G41S, V54E, K63D, S64P, I65T, M85V, I106F
# B23: D27-IgG2 (Fc fusion)
# chain: B1 chain with H27G, I32V, Q39E, N41G, K54V, G55E, F65S, M106L
# B24: D29-IgG2 (Fc fusion)
# chain: B9 chain with N28K, Q39K, G41D, V54M, K63D, S64P, I65S, I106L
# B25: D26-IgG2 (Fc fusion)
# chain: B1 chain with S25A, I32V, Q39E, N41G, K54V, G55E, F65S, M106L
# B26: D3-32-IgG2 (Fc fusion)
# chain: B1 chain with H27G, Q39K, N41D, F65S, M106I
# B27: D3-30-IgG2 (Fc fusion)
# chain: B1 chain with H27G, N41D, F65I, A85M, M106I
# B28: D3-76-IgG2 (Fc fusion)
# chain: B1 chain with E24A, H27G, I32V, N41D, G55E, F65I, A85M, M106I
# Target: T1, full-length human CD86 on HEK293 cells
# Assay: cell-based or functional assay
row,Binder,"Mean IC50 (nM), CD4+ T cell proliferation [nM]"
1,B1,0.03
2,B2,0.05
3,B3,0.03
4,B4,0.04
5,B5,0.02

# Target: T2, human CD86-murine Ig fusion protein
# Assay: SPR Biacore, hCD86-mIg captured
# Experimental: (§1) All Biacore™ analyses were performed on a Biacore™ 2000 system (GE Healthcare) at room temperature (RT, 25° C.). HBS-EP buffer (10 mM HEPES (pH 7.4), 150 mM NaCl, 3 mM EDTA, 0.005% surfactant P20) was used as the flow buffer for all experiments.
# (§2) Rabbit anti-mouse IgG antibody (GE Healthcare, #BR-1005-14) was immobilized on CM5 sensor chips (GE Healthcare, #BR-1000-14) according to the manufacturer's protocol. Antibody was diluted to 30 μg/ml in immobilization buffer (10 mM sodium acetate, pH 5.0 (BR-1003-51)). At a flow rate of 5 μl/minute, sensor chip CM5 was activated with a 35 μl injection of a mixture of 1-Ethyl-3-[3-dimethylaminopropyl]carbodiimide hydrochloride (EDC) and N-hydroxysuccinimide (NHS) (made by mixing equal volumes of 11.5 mg/ml EDC and 75 mg/ml NHS) (GE Healthcare, #BR-1000-50), followed by a 35 μl injection of undiluted antibody. Un-reacted sites were quenched with 35 μl of 1M ethanolamine-HCL, pH 8.5 (GE Healthcare, #BR-1000-50). […] CTLA-4 ligands human CD80-murine Ig (hCD80-mIg) (Ancell, #510-820) or human CD86-murine Ig (hCD86-mIg) (Ancell, #509-820) were bound to antibody-coated sensor chips by injection of 10 μl or 16 μl, respectively, ligand solution (2 μg/ml protein in HBS-EP buffer [10 mM HEPES pH 7.4, 150 mM NaCl, 3 mM EDTA, 0.005% (v/v) surfactant P-20, GE Healthcare, #BR-1001-88]) at a flow rate of 10 μl/min.
Binder,Kd [nM],Binding Avidity (Relative to Orencia) [fold]
B1,0.131 to 0.262,–
B6,0.131 to 0.262,–
B2,0.131 to 0.262,–
B7,0.131 to 0.262,–
B8,0.131 to 0.262,–
B9,0.131 to 0.262,–
B10,< 0.131,> 40
B11,0.262 to 0.523,–
B12,< 0.131,> 40
B13,0.131 to 0.262,–
B14,0.523 to 2.65,–
B3,0.131 to 0.262,–
B4,0.131 to 0.262,–
B15,< 0.131,> 40
B16,< 0.131,> 40
B5,< 0.131,> 40
B17,0.131 to 0.262,–
B18,< 0.131,> 40
B19,< 0.131,> 40
B20,0.523 to 2.65,–
B21,0.523 to 2.65,–
B22,0.131 to 0.262,–
B23,< 0.131,> 40
B24,< 0.131,> 40
B25,< 0.131,> 40
B26,< 0.131,> 40
B27,0.131 to 0.262,–
B28,< 0.131,> 40

# Target: T3, human CD80-murine Ig fusion protein
# Assay: SPR Biacore, hCD80-mIg captured
# Experimental: as §1, §2
Binder,Binding Avidity (Relative to Orencia) [fold],Kd [nM]
B1,> 2,< 0.439
B6,–,0.439 to 1.75
B2,–,0.439 to 1.75
B7,–,0.439 to 1.75
B8,–,0.439 to 1.75
B9,–,0.439 to 1.75
B10,–,0.439 to 1.75
B11,–,0.439 to 1.75
B12,–,0.439 to 1.75
B13,–,0.439 to 1.75
B14,–,0.439 to 1.75
B3,–,0.439 to 1.75
B4,–,0.439 to 1.75
B15,> 2,< 0.439
B16,–,0.439 to 1.75
B5,–,0.439 to 1.75
B17,–,0.439 to 1.75
B18,> 2,< 0.439
B19,> 2,< 0.439
B20,–,0.439 to 1.75
B21,–,0.439 to 1.75
B22,–,0.439 to 1.75
B23,–,0.439 to 1.75
B24,–,0.439 to 1.75
B25,–,0.439 to 1.75
B26,–,0.439 to 1.75
B27,–,0.439 to 1.75
B28,–,0.439 to 1.75
